The data set concerns RBC ghost membrane 105 kDa protein (unidentified; disulfide-linked dimer, ~210 kDa non-reduced) (Homo sapiens). The experiment in a line: filter. Conditions: Scatchard on RBC ghosts, 1600 sites per cell; target assigned to 105 kDa protein by crosslinking.

With AACTCAGTGGTAGGTAACGGTT [c56t], the dissociation constant Kd (in general, the free concentration of one partner at which half of the binding sites on the other are occupied at equilibrium, for simple one-to-one binding) is 4 nM.

Source of the values: patent US20030027781.
